The values below come from patent US20220112276A1 (Janssen / Centocor, published 2022).

First the molecules themselves.
B1: 03D01R3 His-tagged VHH (VHH)
VHH: EVQLVESGGGLVQPGGSLRLSCAASGFTFRTYYMGWFRQAPGKEREFVGVTRSSDDVTYYADSVKGRFTISRDNAKNTVYLQMSRLKPEDTAVYYCAAKPVPITRYSFPQIGEEYDYWGQGTLVTVSS
B2: 02B09R3 His-tagged VHH (VHH)
VHH: EVQLVESGGGLVQPGGSLRLSCAASGFTFRTYYMGWFRRAPGKEREFVGVTRSSDDVTYYADSVKGRFTISRDNAKDTVYLQMSRLKPEDTAVYYCAAKPVPITRYSFPQIGEEYDYWGQGTLVTVSS
B3: 01C09R3 His-tagged VHH (VHH)
VHH: EVQLVESGGGLVQAGGSLRLSCAASGFTFRTYYMGWFRQAPGKEREFVGVTRSSDDVTYYADSVKGRFTISRDNAKNTVYLQMSRLKPEDTAVYYCAAKPVPITRYSFPQIGEEYDYWGQGTLVTVSS
B4: 01B04R2 His-tagged VHH (VHH)
VHH: EVQLVESGGGLVQAGGSLRLSCAASGRTFTSYTMGWFRQAPGKEREFVAAIKWNGGSTYYADSVKGRFTISRDNAKNTVYLQMNSLKPEDTAVYYCAADGDPYFSPTDGIVWHAPHQSEYDYWGQGTLVTVSS
B5: 03D09R3 His-tagged VHH (VHH)
VHH: QVQLVESGGGLVQAGGSLRLSCAASGRTVSSVAMGWFRQAPGKEREFVATISWTGGSTYYADSVKGRFTISRDNAKNTAYLQMNSLKPEDTAVYYCAAGYPADPIALMTLRYEYDYWGQGTLVTVSS
B6: 01B02R2L His-tagged VHH (VHH)
VHH: EVQLVESGGGLVQAGGSLKLACAASGLTFSSYRMGWFRQAPGKEREFVAAIDWNGRGTYYRYYADSVKGRFTISRDNAKNTMCLQMNSLKPEDTAVYYSAIDSRTSIDPRTSGHYRYWGQGTLVTVSS
B7: 01D05R2LS His-tagged VHH (VHH)
VHH: EVQLVESGGGLVQTGGSLRLSCAASGRTFSPYAMGWFRQAPGKEREFVAAIRWSGATTYKYVGDSVQGRFTISRDAAGNTVYLQMNSVKPEDTAVYYCAADRVPKDISIDPRNPKDWDYWGKGTLVTVSS
B8: 01B06R2LS His-tagged VHH (VHH)
VHH: QVQLVESGGGLVQTGGSLRLSCAASGRTFSPYAMGWFRQAPGKEREFVAAIRWSGATTYKYVGDSVQGRFTISRDAAGNTVYLQMNSVKPEDTAVYYCAADRVPKDISIDPRNPKDWDYWGKGTLVTVSS
B9: 03D12R3 His-tagged VHH (VHH)
VHH: QVQLVESGGGLVQAGGSLRLSCAASGRTFSSYAMGWFRQAPGKEREFAAVITWNGGSTHYADSVKGRFTISRDNAKNTVYLQMNSLKPEDTAVYYCAADPMNSPYWGQGTQVTVSS
B10: 03D02R3 His-tagged VHH (VHH)
VHH: EVQLVESGGGLAQAGGSLRLSCTASGTISKIDVMAWYRQTPGNERELVARIFSNDVTHYVDSAKGRFTLSRAQDKNTVDLQMNSLEPDDAAVYYCNAQIWSDMRGRMDTYWGQGTLVTVSS
B11: 01B05R2 His-tagged VHH (VHH)
VHH: EVQLVESGGGLVQAGGSLRLSCAASGRSLSFDTYAMGWFRQAPGKEREFVASIDWNGGSTYYADSVKGRFTISRDNARNTVNLRMNSLKPDDTAVYYCAAARYYTSGTYFPANYWGQGTQVTVSS
B12: 03C10R3 His-tagged VHH (VHH)
VHH: QVQLVESGGGLVQRGGSLRLSCAASGRSLGFDTYAMGWFRQAPGKEREFVASIDWNGGNTYYADSVKGRFTISRDNAKNTVNLRMNSLKPDDTAAYYCAAARYYTSGTYFPANYWGRGTLVTVSS
B13: 01H05R3 His-tagged VHH (VHH)
VHH: QVQLVESGGGLVQAGGSLRLSCAASGRSLGFDTYGMAWFRQAPGKEREFVASIDWNGGSTYYADSMKGRFTISRDNAKNTVNLRMNSLKPDDTAVYYCAAARYYTSSTYFPANYWGQGTQVTVSS
B14: 03H05R3 His-tagged VHH (VHH)
VHH: QVQLVESGGGLVQAGGSLSLSCAASGRSLSFDTYAMSWFRQAPGKEREFVASIDWNGGSTSYADSMKGRFTISRDNAKNTVNLRIRSLKPDDTAVYFCASARYYIGGTYFPANYWGQGTQVTVSS
B15: 01B04R3L His-tagged VHH (VHH)
VHH: EVQLVESGGGLVQAGDSLRLSCAASGRTFTTYVMGWFRQAPGKEREFVATIAWSGSTNYKYYADSVKGRFTISRDNAKNTVYLRMNSLKPEDTAVYYCAASTVLTDPRRLNEYANWGQGTLVTVSS
B16: 03F01R3 His-tagged VHH (VHH)
VHH: QVQLVESGGGLVQAGESLRLSCAASGDVFDIGTMAWYRQPPGKQRELVASITMGGSTDVADSAKGRFTISRDNAKNTVYLHMDSLKPEDTAVYYCNAQFFWPKRHDYWGQGTQVTVSS
B17: 01D08R3 His-tagged VHH (VHH)
VHH: QVQLVESGGGLVQAGDSLRLSCAASGRTSSLYNMGWFRQAPGQEREFVAAIHWGGGRTYYADSVKGRFTISRDNAKNTVYLQMNSLEPGDTANYYCAARRAPELLDDYKQKPEEIGAYHYWGQGTQVTVSS
B18: 03H01R3 His-tagged VHH (VHH)
VHH: EVQLVESGGGLVQAGGSLRLSCAASGRTSSIYNMGWFRQAPGQEREFVAAIHWGGGRTYYADSVKGRFTISRDNAKNTVYLQMNSLEPGDTANYYCAARRAPELLDDYKQKPEEIGTYHYWGQGTQVTVSS
B19: 03G05R3 His-tagged VHH (VHH)
VHH: EVQLVESGGGLVQAGDSLRLSCAASGRALSFNTYAMAWFRQAPGKEREFVASITYNGGSTYYADSVKGRFTVTRDNGKNTVTLRMNSLKPDDTAVYYCASAQYWRSGTSFPANYWGQGTQVTVSS
B20: 01F04R3 His-tagged VHH (VHH)
VHH: QVQLVESGGGLVQAGDSLRLSCAASGRALSFNTYAMAWFRQAPGKEREFVASITYNGGSTYYADSVRGRFTVTRDSGKNTVTLRMNSLKPDDTAVYYCASAQYWRSGTSFPANYWGQGTLVTVSS
B21: 01C04R3 His-tagged VHH (VHH)
VHH: QVQLVESGGGLVQAGDSLRLSCAASGRALSFNTYAMAWFRQAPGKEREFVASITYNGGSTYYADSVKGRFTVTRDNGKDTVTLRMNSLKPDDTAVYYCASAQYWRSGTSFPANYWGQGTLVTVSS
B22: 01D06R2 His-tagged VHH (VHH)
VHH: QVQLVESGGGLVQAGDSLRLSCAASGRTLSFDTYAMAWFRQAPGKEREFVASIDWNGVNTYYADSVKGRFTVTRDNTKNTVTLRMNSLKTDDTAVYYCAAAQYYRSGTSFPANSWGQGTQVTVSS
B23: 03G07R3 His-tagged VHH (VHH)
VHH: EVQLVESGGGLVQAGDSLRLSCAASGRTLSFDTYAMAWFRQAPGKEREFVASIDYNGGSTDYADSVKGRFTVTRDNAKNTVTLRMNSLKPDDTAVYYCASARYYRSGTSFPVNYWGQGTQVTVSS

T1 sequence (P01833 19-638 limits assumed): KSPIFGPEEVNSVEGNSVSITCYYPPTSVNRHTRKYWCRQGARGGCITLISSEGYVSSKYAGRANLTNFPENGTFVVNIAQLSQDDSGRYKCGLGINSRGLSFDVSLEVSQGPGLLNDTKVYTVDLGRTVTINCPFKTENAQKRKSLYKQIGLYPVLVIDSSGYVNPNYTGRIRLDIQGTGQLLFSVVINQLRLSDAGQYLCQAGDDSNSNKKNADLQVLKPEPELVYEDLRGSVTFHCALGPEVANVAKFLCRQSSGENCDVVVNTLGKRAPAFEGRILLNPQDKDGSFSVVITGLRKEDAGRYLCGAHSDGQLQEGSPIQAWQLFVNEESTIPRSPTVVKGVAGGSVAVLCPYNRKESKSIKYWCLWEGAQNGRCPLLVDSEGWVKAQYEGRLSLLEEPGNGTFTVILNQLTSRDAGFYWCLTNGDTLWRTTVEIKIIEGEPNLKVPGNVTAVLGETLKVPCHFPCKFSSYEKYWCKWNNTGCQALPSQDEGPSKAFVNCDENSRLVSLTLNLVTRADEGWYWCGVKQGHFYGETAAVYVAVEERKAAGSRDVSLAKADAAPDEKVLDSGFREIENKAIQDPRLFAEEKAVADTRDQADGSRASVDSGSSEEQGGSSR

The assay has as its target T1, recombinant human pIgR (hpIgR) (human, UniProt P01833 19-638, limits assumed).
T1 construct: probably the ECD
The experiment in a line: ELISA, periplasmic VHH, BSA subtracted. How it is done:
Initial Library Screening: After each panning round showing enrichment, 94 individual clones were expressed and tested in an off-phage initial screen for specific binding to mpIgR or hpIgR (respectively depending on the antigen used). Screening of monoclones in an off-phage format was performed by transforming the phagemid pool into a non-amber-suppressor strain of E. coli and picking random colonies. The VHH proteins were recovered in the periplasmic fraction by performing osmotic shock. Periplasmic fractions containing His-tagged nanobodies were tested for binding to hpIgR or mpIgR. Bound nanobody was detected with a polyclonal anti-alpaca VHH domain antibody. Each clone was also tested for non-specific binding to BSA in parallel. The ELISA values obtained on BSA were subtracted from the ELISA values obtained on the respective pIgR antigen.
Repeat Testing of Positive Hits: The hits identified in the initial screen of the phage pools were re-tested for binding to either hpIgR or mpIgR. Periplasmic fractions were prepared again by performing osmotic shock. Periplasmic fractions containing His-tagged nanobodies were tested for binding to mpIgR. In this assay, bound nanobody was detected with an anti-VHH antibody. Each clone was also tested for non-specific binding to BSA in parallel. The ELISA values obtained on BSA were subtracted from the ELISA values obtained on the respective pIgR antigen.
In the case of B1, the “ELISA (OD)” value stood at 1.84 OD.
To B2 belongs 1.13 OD; to B3, 1.29 OD.
Regarding B4, the “ELISA (OD)” value is 2.16 OD.
In the case of B5, the “ELISA (OD)” value was determined as 1.82 OD.
Regarding B6, the “ELISA (OD)” value amounted to 1.94 OD.
In the case of B7, the “ELISA (OD)” value was 2.41 OD.
On to B8, for which the “ELISA (OD)” value was 1.9 OD.
To B9 belongs 2.27 OD; to B10, 2.07 OD.
To B11 belongs 2.07 OD; to B12, 1.77 OD.
To B13 belongs 1.27 OD; to B14, 0.46 OD.
Take B15: the “ELISA (OD)” value stood at 2.12 OD.
The value for B16 was 1.97 OD; that for B17 was 2.11 OD.
B18: the “ELISA (OD)” value was 2.07 OD.
Regarding B19, the “ELISA (OD)” value worked out at 1.92 OD.
To B20 belongs 1.83 OD; to B21, 2.33 OD; to B22, 0.5 OD.
To B23 belongs 1.92 OD.
